The values that follow come from the nanobody polyreactivity screen of Harvey et al. (2022).

The data set is described as follows: yeast display, Sf9 membrane polyspecificity reagent, FACS + sequencing; frameworks hold sequencing errors. The procedure, abridged:
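Genes from sorted yeast were amplified by colony PCR, read by MiSeq 2 × 250 sequencing and filtered on CDR length. These cells carried a synthetic nanobody library in Saccharomyces cerevisiae BJ5465 and were sorted by FACS into low and high (top ~1%) gates on anti-HA and streptavidin fluorescence. Polyreactivity is labelled according to the gate of origin.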
For “QVQLVESGGGLVQAGGSLRLSCAASGFIVRNYAMGWYSQAPGKERELVASISRGTSTNYADSVKGRFTISRDNAKNTVYLQMNSLKPEDTAVYYCNKRFYYHPFDYWGQGTQVTVSS”, the “polyreactivity (PSR sort gate)” value is on record as “high polyreactivity”. Regarding “QVQLVESGGGLVQAGGSLRLSCAASGFIVWVYAMGWYRQAPGKERELVAAITSGGGSTYYADSVKGRFTISRDNAKNTVYLQMNSLKPEHTAVYYCNAVSWEGYDFDYWGQGTQVTVSS”, the “polyreactivity (PSR sort gate)” value is on record as “high polyreactivity”.

Regarding “QVQLVESGGGLVQAGGSLRLSCAASGFIYDYAMGWYRQAPGKEREFVARINWSGGSTYYADSVKGRFTISRDNAKNTVYLQMNSLKPEDTAVFYCATSGWAWRTSNPYEYWGQGTQVTVSS”, the “polyreactivity (PSR sort gate)” value is recorded as “low polyreactivity”. As for “QVQLVESGGGLVQAGGSLRLSCAASGFIYWYAMGWSRQAPGKERELVAAITWSGGSTYADSVKGRFTISRDNAKNTVYLQMNSLKPEDTAVYYCAADKYSQWSSHTRVRYDYWGQGTQVTVSS”, the “polyreactivity (PSR sort gate)” value was “low polyreactivity”. As to “QVQLVESGGGLVQAGGSLRLSCAASGFIYYAMGWYRQAPGKERELVAAISRGGTTYYADSVKGRFTISRDNAKNTVYLQMNSLKPEVTAVSYCNAVGYRAVGYKTGYARYGYWGQGTQVTVSS”, the “polyreactivity (PSR sort gate)” value is on record as “high polyreactivity”. As for “QVQLVESGGGLVQAGGSLRLSCAASGFLFYYNAMGWYRQAPGKERELVATSTSGGSTNYADSVKGRFTISRDNAKNTVYLQMNSLKPEDTAVYYCAAGHSWVYGYDYWGQGTQVTVSS”, the “polyreactivity (PSR sort gate)” value is reported as “low polyreactivity”. As to “QVQLVESGGGLVQAGGSLRLSCAASGFMFSRYGMGWYRQAPGKERELVAAISGSCGSTYYADSVKGRFTISRDNAKNTVYLQMKSLKPEDTAFYLCATAYSWSNSDWFAYSYDYWGHGTQVTVSS”, the “polyreactivity (PSR sort gate)” value was “low polyreactivity”. As to “QVQLVESGGGLVQAGGSLRLSCAASGFNFDGNAMGWYRQAPGKERELVAAISSSSGRTRYADSVTGRFSISRDNAKNTVYLQMNSLKPEDTAVYYCAARRQSTRPGFYYWGQGTQVTVSS”, the “polyreactivity (PSR sort gate)” value is “high polyreactivity”. For “QVQLVESGGGLVQAGGSLRLSCAASGFNFEAYTMGWYRQAPGKERELVASIDWDGGSTYYADSVKGRFTISRDNAKNTVYLQMNSLKPEDTAVYYCAADSRQYDELGDYDYWGQGTQVTVSS”, the “polyreactivity (PSR sort gate)” value is reported as “low polyreactivity”. For “QVQLVESGGGLVQAGGSLRLSCAASGFNFEVNAMGWYRQAPGKERELVAAITTDGSTNYADSVNGRFSSSRDNAKNTVYIQMTSLKPEDTAVYYCAARVQHYLGTDDYWGQGTQVTVSS” the value was “low polyreactivity”. Regarding “QVQLVESGGGLVQAGGSLRLSCAASGFNFGYYAMGWYRQAPGKERELVAAITSRGGSTYYADSVKGRFTISRDNAKNTDYLQMNSLKPEDTAVYYLAAYSQYLKRDYWGQGTQVTVSS”, the “polyreactivity (PSR sort gate)” value is “high polyreactivity”.

“QVQLVESGGGLVQAGGSLRLSCAASGFNFIDYAMGWYRQAPGKERELVAAITSSGGRTYYADSVKGRFTISRDNAKITVYLQMTSLKPEDTAVYYCAARLPGYVRIYDYWGQGTQVTVSS”: the “polyreactivity (PSR sort gate)” value is “high polyreactivity”. As for “QVQLVESGGGLVQAGGSLRLSCAASGFNFIKYAMGWSRQSPGKESELVAAISFRGGRTYYADSVKGRITISRDNAKNTVYLQMNSLKPEDTAVYYCAAETRDYSEGYYWGQGTQVTVSS”, the “polyreactivity (PSR sort gate)” value is “high polyreactivity”. As for “QVQLVESGGGLVQAGGSLRLSCAASGFNFLTYAMGWYRQATGKESELVAAISSSGGRTTYADSVKGRFTISRDNAKNTVYLQMNSLKPEDTAVYYCAVEDYTIVLDYESWGQGTQVTVSS”, the “polyreactivity (PSR sort gate)” value is recorded as “high polyreactivity”. For “QVQLVESGGGLVQAGGSLRLSCAASGFNFPRYTMGWSRKAPGKEREFVAGITLRGGSTYYADSVKGRFTISRANAKNTVYLQMNSLKPDETAVYYCARVISRGRSFGIGYDYWGQATQVTVSS”, the “polyreactivity (PSR sort gate)” value is “low polyreactivity”.

Turning to “QVQLVESGGGLVQAGGSLRLSCAASGFNFPYNAMGRYRQAPGKERELVAAITSGSNTYYADSVKGRFTISRDNAKNTVYLQMNSLKPEDTAVYYCAARGHGAYGYWGQGTQVTVSS”, the “polyreactivity (PSR sort gate)” value was “low polyreactivity”.

For the sequence “QVQLVESGGGLVQAGGSLRLSCAASGFNFRLYAMGWYRQAPGKERELVATITQRGGRTYYADSVKGRFTISLDNAHNTVYLQMNSLKPEDTAVYYCAATWTVTTGTKFDYWGQGTQVTVAS”, the “polyreactivity (PSR sort gate)” value is “high polyreactivity”.

In the case of “QVQLVESGGGLVQAGGSLRLSCAASGFNFSSYAMGWSRQAPGKERELVAAISGSGGTTYYADSVKGRFTISRDNAKNTVYLQMNSQKPEDTAVYYCATRLGLVITKYGYDYWGQGTQVTVSS”, the “polyreactivity (PSR sort gate)” value is “high polyreactivity”. For “QVQLVESGGGLVQAGGSLRLSCAASGFNFYSYAMGWYKQAPGKERELVAVTYADSVKGRFTISRDNAQNTVYLQMNSLKPEDTAVYYCAALEYLDGPLSDYWGQGTQVTVSS”, the “polyreactivity (PSR sort gate)” value is “low polyreactivity”. For “QVQLVESGGGLVQAGGSLRLSCAASGFNIGDYAMGWYRQAPGKERELVAAITISGGGTYYADSVKGRFTISRDNAKNTVYLQMNSLKPEDTAVYYCAAGYYDLNLDTDFGFDYWGQGTQVTVSS” the value was “low polyreactivity”.

On to “QVQLVESGGGLVQAGGSLRLSCAASGFNSDWYAMGWSRQAPGKERELVATIDWIGGSTYADSVKGRFTISRDNAKNTVFLQMNSLKPEDTAVYYCAADSYFIAWYGAHYAYDYWGQGTQVTVSS”, for which the “polyreactivity (PSR sort gate)” value was “low polyreactivity”.

With “QVQLVESGGGLVQAGGSLRLSCAASGFSFHRYAMGWYRQAPGKERELVAGITRRSGSTFYADSVKGRFTISRDNAKNTVYLQMNRLKPEDSAVYYCAATVPGLHWIYDYWGQGTQVTVSS”, the “polyreactivity (PSR sort gate)” value was “high polyreactivity”. As to “QVQLVESGGGLVQAGGSLRLSCAASGFTCAWYTMGWYREAPGKERELVAAISLNGGSTYYADSVKGRFTISRDNAKNTVYLQMNRLKPEDTAVYYCAKGYRWPYYPYDYWGQGTQVTVSS”, the “polyreactivity (PSR sort gate)” value was “low polyreactivity”.

Consider “QVQLVESGGGLVQAGGSLRLSCAASGFTCKKYAMGWSRQAPGKERDLVASITWYGGSTSYADSVKGRFTISRDNANNTVYLQMNSLKPEDTAVYYCAAATFVYRLRYNRFDYWGQGTQVTVSS”, for which the “polyreactivity (PSR sort gate)” value is recorded as “high polyreactivity”. Regarding “QVQLVESGGGLVQAGGSLRLSCAASGFTCSQNAMGWYRQAPGKERELVAAITGHGGSTYYADSVKGRFTISRDNAKNTVYLQMNSLKPEDTAVYYCAADVYAVHAPQSDYWTKYDYWGQGTQVTVSS”, the “polyreactivity (PSR sort gate)” value is reported as “low polyreactivity”. “QVQLVESGGGLVQAGGSLRLSCAASGFTFAAYAMGWYRQAPVKERELVAAITNGGSTKYADSVKGRFTISRDNAKNTVYVQMNSLKPEDTSVYYCNADGFDLNVTNVSALEYDSWGQGTQVTVSS”: the “polyreactivity (PSR sort gate)” value is “low polyreactivity”. With “QVQLVESGGGLVQAGGSLRLSCAASGFTFAFYTMGWSRPAPGKESELVAGITRSGTNTYYADSLTGRFTISRDNAKNTVYLLLNSLTPEDTAVYYCAAAIRPGMDYWGQGTQVTVSS”, the “polyreactivity (PSR sort gate)” value is on record as “high polyreactivity”. For “QVQLVESGGGLVQAGGSLRLSCAASGFTFAGNAMGWYRPAPGKERELVAAISRRGGSTYYADSVKGRFTISRDNAKNTVYLQMNSLKPEDTAVYYCAAVYPYDYDYWGQGTQVTVSS” the value was “high polyreactivity”; for “QVQLVESGGGLVQAGGSLRLSCAASGFTFAGYAMGWSRQAPGKERELVAGIRSSGARTYYADSVKGRFTISRDNAKNTVYLQMNSLKPEDTAVDYCAKTDGFYRGYGYWGQGTQVTVSS”, “low polyreactivity”. For the sequence “QVQLVESGGGLVQAGGSLRLSCAASGFTFAKYAMGWYRQAPGKERELVAAISSSGGRTYYADSVKGRFTISRDNAKNTVYLQMNSLKPEDTAVYYCAAAIRYRNYVYLYDYWGQGTQVTVSS”, the “polyreactivity (PSR sort gate)” value is “high polyreactivity”. Next, “QVQLVESGGGLVQAGGSLRLSCAASGFTFALYAMGWYRQAPGKERELVASISWSGGSTYYADSVKGRFTISRDNAKNTVYLQMNSLKPEDTAVYYCAACGRYYGGAYTRYYYWGQGTQVTVSS”: “high polyreactivity”; “QVQLVESGGGLVQAGGSLRLSCAASGFTFANNAMGWYRQAPGKERELVAAISRSGGSTYYADSVKGRFTISRDNAKNTVYLQMNSLKPEDTAVYYCAKAVFYGPCERNYGLDYWGQGTQVTVSS”: “high polyreactivity”; “QVQLVESGGGLVQAGGSLRLSCAASGFTFANYAMGWYRQAPGKERELVAAITRTAGSTYYADSVKGRFTISRDNAKNTVYLQMNSLKPEDTAVYYCAVEGIYRWYDYSWYYTSTYDYWGQGTQVTVSS”: “low polyreactivity”.

Regarding “QVQLVESGGGLVQAGGSLRLSCAASGFTFAPYVMGWYRQAPGKETELVAAIPTRGGSTYYADSVKGRFTISRDNAKNTVYLQMNSLKPEDTAVYYFAAQRRYDTADHGYWGQGTQVTVSS”, the “polyreactivity (PSR sort gate)” value is recorded as “high polyreactivity”. Regarding “QVQLVESGGGLVQAGGSLRLSCAASGFTFASNAMGWYRQAPGKERELVAGISRTGTTTYYADSVKGRFTISRDNAKNTVYLQMNSLKPEDTAVYYCNKAFSHQIYATGMGYWGQGTQVTVSS”, the “polyreactivity (PSR sort gate)” value is on record as “high polyreactivity”. As to “QVQLVESGGGLVQAGGSLRLSCAASGFTFASNCMGWYRQAPGKERELVAVIDWSDDSTYYADSVKGRFTISRDNAKNTVYLQMNSLKPEDTAVYYCKADVWWGGYDYWGQGTQVNVSS”, the “polyreactivity (PSR sort gate)” value is listed as “low polyreactivity”. Consider “QVQLVESGGGLVQAGGSLRLSCAASGFTFAVYAMGWYRQAPGKERELVAAINRGGGSTYADSVKGRFTISRDTAKNTVYLQMNSLKPEDTAVYYCAARVYGTRKINYSWGQGTQVTVSS”, for which the “polyreactivity (PSR sort gate)” value is recorded as “high polyreactivity”. With “QVQLVESGGGLVQAGGSLRLSCAASGFTFAVYTMGRYIQGPGKERELVAAITASGGSTHYADSVKGRFTISRDNAKNTVYIQMNSLKPEDTAVYYCAARPRLYQYYYWGQGTQVTVSS”, the “polyreactivity (PSR sort gate)” value is “high polyreactivity”. “QVQLVESGGGLVQAGGSLRLSCAASGFTFAVYTMGWYRQAPGKERELVAAITASGGSMHYADSVKGRFTISRDNVKNTVYLQMNSLKPEDTAVYYCAARPRLYQYYYWGQGTQVTVSS”: the “polyreactivity (PSR sort gate)” value is given as “high polyreactivity”. For “QVQLVESGGGLVQAGGSLRLSCAASGFTFAYNAMGWYRQAPGKERELVAAISRSGARTYYADSVKGRFTISRDNAKNTVYLQMNSLKPEDTAVYYCNARDYTLYGYWGQGTQVTVSS”, the “polyreactivity (PSR sort gate)” value is “high polyreactivity”.

Turning to “QVQLVESGGGLVQAGGSLRLSCAASGFTFAYNAMGWYRQAPGKERELVATISWSGGSTYYADSVKGRFTISRDNAKNTVYLQMNSLKPEDTAVYYCATTIFYTYYGLYDYWGQGTQVTVSS”, the “polyreactivity (PSR sort gate)” value is on record as “high polyreactivity”.
